Laboratory results from patent US20230399394A1 (SUNSHINE GUOJIAN PHARMACEUTICAL SHANGHAI, published 2023).

T1: Human IL-33-his (human, UniProt O95760 112-270, biotinylated with EZ-Link NHS-Biotin where used as IL-33-his-biotin)
T1 construct: Used plain (SPR, cell assays) and biotinylated (ELISA); also called IL-33-his-biotin
T1 sequence: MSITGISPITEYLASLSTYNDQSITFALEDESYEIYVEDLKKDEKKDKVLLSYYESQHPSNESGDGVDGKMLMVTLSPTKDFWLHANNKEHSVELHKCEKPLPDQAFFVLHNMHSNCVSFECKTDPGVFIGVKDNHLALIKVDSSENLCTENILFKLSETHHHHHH


Experiments:
[1] = molecular target: T1, Human IL-33-his; assay: competition ELISA as Example 10, ST2-Fc on plate; competitor ST2-Fc
Procedure: (§1) ST2-Fc protein was diluted to 1 μg/mL with ELISA coating solution to coat ELISA plate with 100 μL/well. The plate was placed in a wet box at 4° C. for 16 h for coating. The ELISA plate was washed 3 times with PBST, and then was blocked with 2% BSA prepared in PBS at 200 μL/well at room temperature for 2 h. The plate was washed once with PBST, and was patted dry to remove the excess blocking solution. Each monoclonal antibody was diluted with 1% BSA prepared in PBST in a 3-fold gradient. The highest concentration of antibody was 10 μg/mL, and the antibody was diluted for 11 gradients. The diluted antibody was mixed 1:1 with 10 ng/ml IL-33-his-biotin, and then the mixture was added into the ELISA well at 100 μL/well. The plate was incubated at room temperature for 1 h. Each concentration was added to duplicate wells in parallel (maximum final concentration of antibody was […], final concentration of IL-33-his-biotin was 5 ng/mL). Unbound or non-specifically bound primary antibodies were washed out. According to the instructions of the antibody, HRP labeled streptavidin secondary antibody was diluted to an appropriate concentration with antibody diluent solution, then it was added to ELISA plate with 100 μL/well, and was incubated at room temperature for 1 h. The ELISA plate was washed with PBST for 5 times, and was patted dry on absorbent paper to remove excess liquid. TMB developing solution was added with 100 μL/well for development to an appropriate degree. 2M H₂SO₄ was added with 70 μL/well to terminate development, and the absorbance was measured at 450 nm on a multifunctional microplate reader. The data were analyzed.
The blocking effect of the above humanized antibodies on the binding of IL-33 to its receptor ST2 was determined by the ELISA method, and the relevant experimental methods were referred to Example 10.

[2] = molecular target: T1, Human IL-33-his; assay: SPR Biacore 8K, antibody captured on Protein A/G chip, IL-33-his as analyte, 1:1 model
Procedure: A chip with covalently coupled Protein A/G (purchased from GE Healthcare, catalog number BR-1005-30) was used to capture each antibody to be tested, and the relevant operating parameters were as follows: The antibody concentration was […], the contact time was 75 s, the flow rate was […], and the regeneration contact time was 30 s. The IL-33-his antigen was diluted with HBS-EP pH7.4 buffer solution (purchased from GE Healthcare, catalog number BR-1006-69). The maximum concentration was 50 nM, and diluted to 0.39 nM by two-fold dilution. Duplicate wells and 0 concentration point well were set, and 6M guanidine hydrochloride solution was used as the regeneration buffer. The sample was injected on Biacore 8K according to the following parameters, the binding time was 180 s, the dissociation time was 900 s, the flow rate was 30 μL/min, and the regeneration contact time was 30 s. After running, Biacore 8K Evaluation Software was used to analyze the data according to the “1:1 binding kinetics model”, and the binding kinetics parameters of each antibody to IL-33 were obtained.

[3] = molecular target: T1, Human IL-33-his; assay: ELISA as Example 9, IL-33-his-biotin on streptavidin plate
[4] = molecular target: T1, Human IL-33-his; assay: cell-based or functional assay
[5] = molecular target: T1, Human IL-33-his; assay: ELISA, IL-33-his-biotin on streptavidin plate, anti-human Fc detection
Procedure: SA protein was diluted to 2 μg/mL to coat ELISA plate at 100 μL/well overnight at 4° C. The plate was washed with PBST (PBS containing 0.05% Tween20) for 3 times, and blocked with 2% BSA prepared in PBS at 200 μL/well, at room temperature for 2 h. After the plate was washed twice with PBST, IL-33-his-biotin protein was diluted to 1 μg/mL with 1% BSA prepared in PBST, and was added to ELISA plate at 100 μL/well. The plate was incubated at room temperature for 1 h, and each monoclonal antibody was diluted with 1% BSA prepared in PBST in a 3-fold gradient. The highest concentration of antibody was 10 μg/mL, and the antibody was diluted for 12 gradients. Each diluted monoclonal antibody was added to ELISA wells with 100 μL/well, and the plate was incubated at room temperature for 1 h. Each sample was added to duplicate wells in parallel. The plate was washed with PBST for 3 times, and HRP-anti human IgG Fc secondary antibody prepared with PBST was diluted at an appropriate ratio, and was added to ELISA wells at 100 μL/well. The plate was incubated at room temperature for 1 h. After washing with PBST for 3 times, TMB developing solution was added at 100 μL/well. When the development met expectations, 2M H₂SO₄ was added to terminate the chromogenic reaction at 70 μL/well. Each reaction solution was shaken uniformly and OD450 nm was read on a microplate reader. The data was analyzed and EC₅₀ was calculated.

[6] = molecular target: T1, Human IL-33-his; assay: competition ELISA, antibody mixed with IL-33-his-biotin, ST2-Fc on plate; competitor ST2-Fc
Procedure: as §1

Binder	IC50 [1]	Kd [2]	koff [2]	kon [2]	EC50 [3]	IC50 of inhibition of IFNγ secretion by NK cells induced by IL-33 [4]	IC50 of the inhibitory effect on IL-6 expression in HUVEC cells induced by IL-33 [4]	IC50 of the inhibitory effect on the IFN-γ secretion of PBMC induced by IL-33 [4]	EC50 [5]	IC50 [6]
871G1-Hu1 (antibody, human IgG4 S228P, kappa, V domains shown, Humanized; also called humanized antibody 871G1-Hu1) VH: QVQLQESGPGLVKPSETLSLTCTVSGFSLSKYGVHWIRQPPGKGLEWIGVLRAGGTISYNSALMSRVTISEDISKSQVSLKLSSVTAADTAVYYCARDHYYYSSFGGFASWGQGTLVTVSS VL: DIQMTQSPSSVSASVGDRVTITCLASQTIGAWLAWYQQKPGKSPKLLIYAATRLADGVPSRFSGSGSGTDFTLTISSLQPEDFATYYCQQLNSTPYTFGQGTKVEIKR	0.404 nM	1.71 nM	0.000504 s⁻¹	295000 M⁻¹ s⁻¹	0.191 nM	0.851 nM	0.21 nM	1.4 nM	–	–
874F7-Hu2 (antibody, human IgG4 S228P, kappa, V domains shown, Humanized; also called humanized antibody 874F7-Hu2) VH: QVQLQESGPGLVKPSETLSLTCTVSGFSLSKYGVHWIRQPPGKGLEWLGVLRAGGSTGYNSALMSRLTISKDSSKSQVSLKLSSVTAADTAVYYCVRDHYYYSSYGGFVYWGQGTLVTVSS VL: DIQMTQSPSSVSASVGDRVTITCLASQTIGAWLAWYQQKPGKSPKLLIYAATRLADGVPSRFSGSGSGTDFTLTISSLQPEDFATYYCQQLDSSPYTFGQGTKVEIKR	0.35 nM	2.97 nM	0.000576 s⁻¹	194000 M⁻¹ s⁻¹	0.136 nM	1.56 nM	0.05 nM	1.74 nM	–	–
864F3-Hu1 (antibody, human IgG4 S228P, kappa, V domains shown, Humanized; also called humanized antibody 864F3-Hu1) VH: QVQLQESGPGLVKPSETLSLTCTVSGFSLTNYGVHWIRLPPGKGLEWIGVIRAGGSSDYNSALMSRVTISKDNSKSQVSLKLSSVTAADTAVYYCARDHYFSNSYGGSPYWGQGTLVTVSS VL: DIQMTQSPSSLSASVGDRVTITCLASQTIATWLAWYQQKPGKSPKLLIYAATRLADGVPSRFSGSGSGTDFTLTISSLQPEDFATYYCQQLYNTPYTFGQGTKVEIKR	–	–	–	–	0.249 nM	–	–	–	–	–
871G1-HuG (antibody, human IgG4 S228P, kappa, V domains shown, Humanized; also called humanized antibody 871G1-HuG) VH: QVQLQESGPGLVKPSETLSLTCTVSGFSLSKYGVHWIRQPPGKGLEWIGVLRAGGTISYNSALMSRVTISVDTSKNQFSLKLSSVTAADTAVYYCARDHYYYSSFGGFASWGQGTLVTVSS VL: DIQMTQSPSSVSASVGDRVTITCLASQTIGAWLAWYQQKPGKSPKLLIYAATRLADGVPSRFSGSGSGTDFTLTISSLQPEDFATYYCQQLNSTPYTFGQGTKVEIKR	–	–	–	–	0.187 nM	–	–	–	–	–
864F3-HuG (antibody, human IgG4 S228P, kappa, V domains shown, Humanized; also called humanized antibody 864F3-HuG) VH: QVQLQESGPGLVKPSETLSLTCTVSGFSLTNYGVHWIRQPPGKGLEWIGVIRAGGSSDYNSALMSRVTISVDTSKNQFSLKLSSVTAADTAVYYCARDHYFSNSYGGSPYWGQGTLVTVSS VL: DIQMTQSPSSLSASVGDRVTITCLASQTIATWLAWYQQKPGKSPKLLIYAATRLADGVPSRFSGSGSGTDFTLTISSLQPEDFATYYCQQLYNTPYTFGQGTKVEIKR	–	–	–	–	0.76 nM	–	–	–	–	–
874F7-HuG (antibody, human IgG4 S228P, kappa, V domains shown, Humanized; also called 874F7-Hµg; humanized antibody 874F7-HuG) VH: QVQLQESGPGLVKPSETLSLTCTVSGFSLSKYGVHWIRQPPGKGLEWIGVLRAGGSTGYNSALMSRVTISVDTSKNQFSLKLSSVTAADTAVYYCARDHYYYSSYGGFVYWGQGTLVTVSS VL: DIQMTQSPSSVSASVGDRVTITCLASQTIGAWLAWYQQKPGKSPKLLIYAATRLADGVPSRFSGSGSGTDFTLTISSLQPEDFATYYCQQLDSSPYTFGQGTKVEIKR	–	–	–	–	0.17 nM	–	–	–	–	–
871G1-Hu2 (antibody, human IgG4 S228P, kappa, V domains shown, Humanized; also called humanized antibody 871G1-Hu2) VH: QVQLQESGPGLVKPSETLSLTCTVSGFSLSKYGVHWIRQPPGKGLEWLGVLRAGGTISYNSALMSRLTISEDISKSQVSLKLSSVTAADTAVYYCARDHYYYSSFGGFASWGQGTLVTVSS VL: DIQMTQSPSSVSASVGDRVTITCLASQTIGAWLAWYQQKPGKSPKLLIYAATRLADGVPSRFSGSGSGTDFTLTISSLQPEDFATYYCQQLNSTPYTFGQGTKVEIKR	0.361 nM	1.76 nM	0.000527 s⁻¹	300000 M⁻¹ s⁻¹	0.176 nM	0.9 nM	0.175 nM	1.06 nM	–	–
871G1-ch (antibody, human IgG4 S228P, kappa, V domains shown, Chimeric: human IgG4 (S228P) and human kappa constant regions; also called chimeric antibody 871G1-ch) VH: QVHLKESGPGLVAPSQSLSITCNVSGFSLSKYGVHWIRQTPGRGLDWLGVLRAGGTISYNSALMSRLSISEDISKSQVFLKMNDLQTDDSAIYFCARDHYYYSSFGGFASWGQGTLVTVSA VL: DIQMTQSPASQSASLGESVTITCLASQTIGAWLAWYRQQPGKSPQLLIYAATRLADGVPSRFSGSGSGTKFSFKINNLQAEDFVIYYCQQLNSTPYTFGGGTRLEMRT	–	–	–	–	0.255 nM	–	–	–	0.178 nM	0.853 nM

Continued by falling EC50 [3], values first:

IC50 [1]	Kd [2]	koff [2]	kon [2]	EC50 [3]	IC50 of inhibition of IFNγ secretion by NK cells induced by IL-33 [4]	IC50 of the inhibitory effect on IL-6 expression in HUVEC cells induced by IL-33 [4]	IC50 of the inhibitory effect on the IFN-γ secretion of PBMC induced by IL-33 [4]	EC50 [5]	IC50 [6]	Binder
–	–	–	–	0.181 nM	–	–	–	–	–	864F3-Hu2 (antibody, human IgG4 S228P, kappa, V domains shown, Humanized; also called humanized antibody 864F3-Hu2) VH: QVQLQESGPGLVKPSETLSLTCTVSGFSLTNYGVHWVRLPPGKGLEWLGVIRAGGSSDYNSALMSRLTISKDNSKSQVSLKLSSVTAADTAVYYCARDHYFSNSYGGSPYWGQGTLVTVSS VL: DIQMTQSPSSLSASVGDRVTITCLASQTIATWLAWYQQKPGKSPKLLIYAATRLADGVPSRFSGSGSGTDFTLTISSLQPEDFATYYCQQLYNTPYTFGQGTKVEIKR
0.473 nM	1.36 nM	0.000439 s⁻¹	323000 M⁻¹ s⁻¹	0.146 nM	1.02 nM	0.147 nM	0.839 nM	–	–	864F3-Hu5 (antibody, human IgG4 S228P, kappa, V domains shown, Humanized; also called humanized antibody 864F3-Hu5) VH: QVQLQESGPGLVKPSETLSLTCTVSGFSLSKYGVHWIRQPPGKGLEWLGVLRAGGTISYNSALMSRLTISEDISKSQVSLKLSSVTAADTAVYYCARDHYYYSSFGGFASWGQGTLVTVSS VL: DIQMTQSPSSLSASVGDRVTITCLASQTIATWLAWYQQKPGKSPKLLIYAATRLADGVPSRFSGSGSGTDFTLTISSLQPEDFATYYCQQLYNTPYTFGQGTKVEIKR
–	–	–	–	0.138 nM	–	–	–	–	–	864F3-Hu3 (antibody, human IgG4 S228P, kappa, V domains shown, Humanized; also called humanized antibody 864F3-Hu3) VH: QVQLQESGPGLVKPSETLSLTCTVSGFSLSKYGVHWIRQPPGKGLEWIGVLRAGGTISYNSALMSRVTISVDTSKNQFSLKLSSVTAADTAVYYCARDHYYYSSFGGFASWGQGTLVTVSS VL: DIQMTQSPSSLSASVGDRVTITCLASQTIATWLAWYQQKPGKSPKLLIYAATRLADGVPSRFSGSGSGTDFTLTISSLQPEDFATYYCQQLYNTPYTFGQGTKVEIKR
